The supplement of paper PMC10567573

B1: GLTSCR2 (parent)
chain: YNPSFEDHQTLLSAAHEVELQRQK
B2: VPS39 (parent)
chain: QQVKCIITEEKVCMVCKKKIGNSA

Variants of: B1
Assay: protein stability index of a GFP-peptide fusion (GPS, HEK-293T) (PSI 1-6); higher = more stable
Conditions: c terminus: a fixed tail appended
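Note: lentivirally expressed fusions sorted by FACS into six bins by GFP to DsRed ratio, PSI derived from sequencing read proportions per bin multiplied by bin number.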

In order of falling protein stability index:
1. L12D  5.35
2. Y1E  4.87
3. S4P  4.69
4. L12H  4.61
5. L20E  4.54
6. L20H  4.51
7. L20P  4.46
8. L12R  4.44
9. H16D  4.43
10. H8E  4.4
11. T10D  4.32
12. H8N  4.29
13. N2Y  4.29
14. A15G  4.28
15. E6D  4.14
16. Q23G  4.12
17. A14P  4.08
18. H8G  4.05
19. L20C  3.99
20. S13D  3.88
21. L20Q  3.87
22. L12I  3.86
23. E17D  3.85
24. Q9A  3.79
25. Q23K  3.75
26. P3V  3.73
27. F5Y  3.68
28. V18S  3.65
29. V18M  3.65
30. Q23S  3.63
31. H16K  3.51
32. V18Y  3.49
33. A15Y  3.48
34. R22M  3.4
35. N2T  3.36
36. R22C  3.35
37. E19C  3.33
38. Q23H  3.33
39. K24M  3.28
40. S13C  3.25
41. K24C  3.22
42. Q9K  3.12
43. E6I  3.12
44. E6T  3.09
45. E19M  3.01
46. N2H  2.97
47. E19R  2.69
48. A14Y  2.65
49. S13K  2.58
50. H16I  2.53
51. F5K  2.48
52. E6M  2.38
53. T10K  2.35
54. D7W  1.92

Variants of: B2
Assay: as above
Conditions: c terminus: a fixed tail appended

In order of rising protein stability index:
1. K18W  1.02
2. E9W  1.35
3. K18Y  1.41
4. N22G  1.42
5. K17L  1.42
6. S23L  1.45
7. E10L  1.47
8. K17V  1.54
9. E9R  1.54
10. K18M  1.57
11. K19M  1.67
12. K19F  1.72
13. S23I  1.73
14. K17I  1.74
15. A24L  1.74
16. N22I  1.75
17. K11F  1.75
18. K19W  1.76
19. G21W  1.76
20. K11Y  1.77
21. K18V  1.78
22. K11M  1.8
23. N22W  1.81
24. S23W  1.82
25. N22R  1.84
26. E9Q  1.85
27. K11L  1.87
28. E9Y  1.9
29. E10A  1.9
30. I20V  1.95
31. E9V  1.95
32. S23F  1.95
33. E10D  1.95
34. E10F  1.97
35. V12W  1.98
36. K18F  1.98
37. N22Y  1.99
38. N22F  2
39. E10N  2.01
40. M14W  2.02
41. K18C  2.02
42. E10S  2.03
43. A24W  2.07
44. K11W  2.08
45. E9T  2.08
46. K18T  2.08
47. V12C  2.09
48. K19Y  2.09
49. A24F  2.1
50. N22V  2.11
51. V12F  2.11
52. K19H  2.12
53. G21M  2.13
54. E10H  2.13
55. M14I  2.14
56. K19P  2.14
57. K19N  2.15
58. K18L  2.16
59. G21R  2.16
60. V15Y  2.17
61. C16I  2.19
62. K19Q  2.19
63. S23V  2.19
64. N22A  2.21
65. A24H  2.23
66. E10R  2.23
67. A24V  2.24
68. N22H  2.25
69. K19S  2.25
70. V15I  2.27
71. K17R  2.27
72. K19R  2.28
73. N22T  2.29
74. K17M  2.29
75. A24G  2.29
76. E10Q  2.29
77. G21Y  2.3
78. V12Y  2.31
79. G21L  2.31
80. K18R  2.33
81. E10I  2.34
82. K11G  2.35
83. A24S  2.37
84. K18P  2.37
85. K19A  2.38
86. K11V  2.39
87. S23P  2.4
88. E10M  2.4
89. S23N  2.41
90. S23Y  2.41
91. E10T  2.41
92. E10G  2.41
93. K18I  2.43
94. K11I  2.44
95. E10W  2.44
96. K17H  2.46
97. E9P  2.46
98. K19G  2.48
99. A24E  2.48
100. M14A  2.49
101. A24I  2.49
102. C16W  2.5
103. V12Q  2.5
104. K17T  2.5
105. K19V  2.5
106. S23Q  2.5
107. K18Q  2.5
108. G21T  2.51
109. K11D  2.52
110. A24M  2.54
111. C13F  2.54
112. E10K  2.54
113. K11T  2.55
114. G21P  2.55
115. K19L  2.56
116. K18G  2.56
117. N22L  2.57
118. M14Y  2.57
119. A24Y  2.57
120. C13V  2.59
121. V15Q  2.6
122. C13W  2.6
123. N22S  2.62
124. V12H  2.64
125. E10Y  2.65
126. K17W  2.66
127. K19T  2.66
128. M14N  2.67
129. V12T  2.69
130. I20N  2.69
131. E10P  2.69
132. G21S  2.7
133. V15G  2.71
134. N22M  2.75
135. G21Q  2.76
136. S23R  2.77
137. S23T  2.78
138. N22K  2.79
139. I20G  2.79
140. A24Q  2.79
141. M14V  2.8
142. V12M  2.81
143. G21D  2.81
144. V15L  2.82
145. K17S  2.82
146. C13K  2.82
147. V15M  2.83
148. K11Q  2.84
149. A24N  2.84
150. K17F  2.85
151. V12L  2.86
152. K11E  2.87
153. G21F  2.87
154. V12R  2.88
155. K18A  2.88
156. M14F  2.89
157. I20T  2.89
158. K19E  2.89
159. K11N  2.89
160. K11S  2.9
161. K11R  2.9
162. C13Y  2.91
163. V15F  2.92
164. A24T  2.93
165. G21H  2.93
166. V12K  2.94
167. K18N  2.94
168. V15W  2.97
169. N22C  2.98
170. C13M  2.98
171. S23H  2.98
172. G21A  2.98
173. K17P  3
174. G21N  3.01
175. A24K  3.03
176. A24P  3.03
177. A24C  3.03
178. V15K  3.05
179. K17N  3.05
180. S23G  3.05
181. E10C  3.05
182. V12I  3.06
183. M14Q  3.06
184. I20F  3.06
185. C16L  3.07
186. V15R  3.07
187. V15N  3.08
188. G21K  3.08
189. K17Y  3.09
190. C13I  3.09
191. S23K  3.09
192. K18E  3.09
193. K18S  3.09
194. C13L  3.1
195. G21V  3.1
196. K17Q  3.11
197. C16M  3.13
198. M14H  3.13
199. C16F  3.15
200. M14P  3.15
201. I20L  3.15
202. I20Y  3.15
203. K11P  3.15
204. I20P  3.17
205. G21I  3.17
206. G21C  3.19
207. K17E  3.21
208. K18H  3.24
209. V15C  3.26
210. I20R  3.26
211. I20C  3.26
212. M14T  3.3
213. K11H  3.3
214. V15A  3.32
215. G21E  3.32
216. N22E  3.33
217. I20M  3.33
218. V15D  3.34
219. K17C  3.34
220. I20A  3.35
221. A24D  3.35
222. N22Q  3.38
223. K18D  3.4
224. C16K  3.41
225. V12S  3.41
226. V12A  3.41
227. V15H  3.43
228. V12P  3.44
229. M14K  3.44
230. C16S  3.45
231. K19C  3.48
232. C13G  3.48
233. I20D  3.51
234. K19D  3.52
235. C13S  3.52
236. S23A  3.52
237. I20Q  3.53
238. V12G  3.55
239. K17G  3.58
240. I20K  3.58
241. S23D  3.6
242. M14E  3.61
243. C13H  3.62
244. S23C  3.62
245. K11A  3.64
246. I20S  3.67
247. V12N  3.68
248. V15T  3.68
249. K17D  3.68
250. C16Y  3.69
251. N22D  3.7
252. C16T  3.72
253. V15S  3.74
254. E9S  3.77
255. C13P  3.78
256. C13Q  3.78
257. C16H  3.79
258. C13T  3.83
259. V12D  3.87
260. C16N  3.88
261. C13A  3.88
262. C16Q  3.93
263. C13R  3.95
264. C16A  3.96
265. V12E  3.96
266. V15P  3.99
267. I20E  4.03
268. S23E  4.07
269. K11C  4.08
270. M14C  4.14
271. C16P  4.22
272. C16G  4.28
273. C16E  4.29
274. I20H  4.29
275. V15E  4.38
276. C13N  4.4
277. C13E  4.41
278. C16R  4.5
279. C13D  4.67
280. C16D  4.91
